How the values were obtained:
Assay in all cases: native gel or EMSA + SEC; native PAGE without SDS (7.5% separating gel, running buffer 0.05 M Tris, 0.038 M glycine, pH 8.3) against the standards TA-3HMU and TA-3FCR (dimers), catalase and TA-3N5M (tetramers); SEC on HiPrep 16/60 Sephacryl S-100 HR in 50 mM sodium phosphate pH 8.0; subunit size by SDS-PAGE
[1] = target: TA-9, putative transaminase from Burkholderia cepacia (Burkholderia cepacia)
[2] = target: TA-5, putative transaminase from Halomonas elongata (Halomonas elongata)
[3] = target: TA-10, amine transaminase from Burkholderia multivorans (Burkholderia multivorans)
[4] = target: the molecule itself

“TA-9, putative transaminase from Burkholderia cepacia (enzyme)” showed a stoichiometry N [1] of 4.

“TA-5, putative transaminase from Halomonas elongata (enzyme)” gave a stoichiometry N [2] of 4.

In the case of “TA-10, amine transaminase from Burkholderia multivorans (enzyme)”, the stoichiometry N [3] is reported as 4.

B1: TA-1, taurine transaminase from Bilophila wadsworthia (enzyme, UniProt Q9APM5 1-456, looked up)
chain: MTYDKAELVALDKKYVWHHLTQHKNFEPAIYVKGEGMRITDIDGKTYLDAVSGGVWTVNVGYGRKEIVDAVAKQMMEMCYFANGIGNVPTIKFSEKLISKMPGMSRVYLSNSGSEANEKAFKIVRQIGQLKHGGKKTGILYRARDYHGTTIGTLSACGQFERKVQYGPFAPGFYEFPDCDVYRSKFGDCADLGVKMAKQLEEVILTVGPDELGAVIVEPMTAGGGILVPPAGYYETIREICDKYELLLIIDEVVCGLGRTGKWFGYQHFNVQPDIVTMAKGVASGYAPISCTVTTEKVFQDFVNDPADTDAYFRDISTFGGCTSGPAAALANIEIIERENLLENCTKMGDRLLEGLKGLMAKHPIIGDVRGKGLFAGIEIVKDRATKEPIAEAVANAMVGAAKQAGVLIGKTSRSFREFNNTLTLCPALIATEADIDEIVAGIDKAFTTVEQKFGL
notes: TA-1, taurine-pyruvate transaminase, Bilophila wadsworthia; codon-optimized gene subcloned with NdeI and BamHI into pET22b or pET28b; Purified and stored with PLP as cofactor; also called taurine-pyruvate transaminase; source: E. coli BL21, purified (Ni-NTA, desalting)
For B1, the “stoichiometry N” value [4] was 4.

— paper PMC9418295, “Characterization of proteins from the 3N5M family reveals an operationally stable amine transaminase” (Applied Microbiology and Biotechnology, 2022)
